Laboratory results published in the supplement of paper PMC10567573.

B1: TSN (parent)
chain: AFVVYLETETLVTREAVTEILGIE
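Further: lentivirally expressed fusions sorted by FACS into six bins by GFP to DsRed ratio, PSI derived from sequencing read proportions per bin multiplied by bin number.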

Variants of: B1
Assay: protein stability index of a GFP-peptide fusion (GPS, HEK-293T) (PSI 1-6); higher = more stable
Details: c terminus: a fixed tail appended
With TFVVYLETETLVTREAVTEILGIE the protein stability index was 2.55.
In the case of CFVVYLETETLVTREAVTEILGIE, the protein stability index is reported as 2.64.
For SFVVYLETETLVTREAVTEILGIE, the protein stability index was 2.71.
In the case of DFVVYLETETLVTREAVTEILGIE, the protein stability index is reported as 1.74.
Work on WFVVYLETETLVTREAVTEILGIE yielded a protein stability index of 2.42.
Variant GFVVYLETETLVTREAVTEILGIE has a protein stability index of 3.71.
In the case of QFVVYLETETLVTREAVTEILGIE, the protein stability index is reported as 2.11.
In the case of LFVVYLETETLVTREAVTEILGIE, the protein stability index is reported as 3.38.
In the case of AFVVYLETETLVTREAVPEILGIE, the protein stability index is reported as 2.79.
Variant AFVVYLETETLVTREAVNEILGIE has a protein stability index of 4.21.
In the case of AFVVYLETETLVTREAVLEILGIE, the protein stability index is reported as 2.24.
Variant AFVVYLETETLVTRESVTEILGIE has a protein stability index of 3.05.
Variant AFVVYLETETLVTREFVTEILGIE has a protein stability index of 3.01.
Variant AFVVYLETETLVTRENVTEILGIE has a protein stability index of 1.96.
AFVVYLETETLVTRECVTEILGIE gave a protein stability index of 3.53.
For AFVVYLETETLVTREPVTEILGIE, the protein stability index was 3.89.
In the case of AFVVYLETETLVTREDVTEILGIE, the protein stability index is reported as 1.97.
Work on AFGVYLETETLVTREAVTEILGIE yielded a protein stability index of 1.67.
With AFFVYLETETLVTREAVTEILGIE the protein stability index was 1.99.
AFYVYLETETLVTREAVTEILGIE gave a protein stability index of 2.86.
With AFPVYLETETLVTREAVTEILGIE the protein stability index was 2.89.
With AFEVYLETETLVTREAVTEILGIE the protein stability index was 1.9.
AFAVYLETETLVTREAVTEILGIE showed a protein stability index of 2.32.
AFVVYLETETLVYREAVTEILGIE gave a protein stability index of 3.33.
With AFVVYLETETLVRREAVTEILGIE the protein stability index was 3.01.
With AFVVYLETETLVDREAVTEILGIE the protein stability index was 1.81.
AFVVYLETETLVWREAVTEILGIE gave a protein stability index of 1.62.
AFVVYLETETLVAREAVTEILGIE gave a protein stability index of 2.44.
Variant AFVVYLETETLVEREAVTEILGIE has a protein stability index of 1.06.
Work on AFVVYLETETLVMREAVTEILGIE yielded a protein stability index of 3.48.
With AFVVYLETETLVIREAVTEILGIE the protein stability index was 1.31.
With AFVVYLKTETLVTREAVTEILGIE the protein stability index was 2.63.
With AFVVYLSTETLVTREAVTEILGIE the protein stability index was 1.76.
Work on AFVVYLQTETLVTREAVTEILGIE yielded a protein stability index of 3.51.
For AFVVYLDTETLVTREAVTEILGIE, the protein stability index was 3.68.
Variant AFVVYLYTETLVTREAVTEILGIE has a protein stability index of 2.77.
With AFVVYLETETEVTREAVTEILGIE the protein stability index was 1.73.
AFVVYLETETPVTREAVTEILGIE showed a protein stability index of 1.97.
In the case of AFVVYLETETWVTREAVTEILGIE, the protein stability index is reported as 2.15.
Variant AFVVYLETETGVTREAVTEILGIE has a protein stability index of 2.58.
Variant AFVVYLETETRVTREAVTEILGIE has a protein stability index of 2.65.
AFVVYLETETTVTREAVTEILGIE showed a protein stability index of 1.64.
Work on AFVVRLETETLVTREAVTEILGIE yielded a protein stability index of 2.97.
AFVVDLETETLVTREAVTEILGIE gave a protein stability index of 2.68.
Variant AFVVFLETETLVTREAVTEILGIE has a protein stability index of 1.99.
Variant AFVVVLETETLVTREAVTEILGIE has a protein stability index of 3.44.
Variant AFVVQLETETLVTREAVTEILGIE has a protein stability index of 1.91.
Work on AFVVKLETETLVTREAVTEILGIE yielded a protein stability index of 1.14.
In the case of AFVVYLETETLVTREAVTEICGIE, the protein stability index is reported as 2.36.
AFVVYLETETLVTREAVTEIVGIE showed a protein stability index of 3.75.
Work on AFVVYLETETLVTREAMTEILGIE yielded a protein stability index of 4.75.
In the case of AFVVYLETETLVTREADTEILGIE, the protein stability index is reported as 2.61.
For AFVVYLETETLVTREATTEILGIE, the protein stability index was 3.01.
In the case of AFVVYLEAETLVTREAVTEILGIE, the protein stability index is reported as 2.27.
Variant AFVVYLESETLVTREAVTEILGIE has a protein stability index of 2.93.
With AFVVYLEGETLVTREAVTEILGIE the protein stability index was 2.1.
With AFVVYLEKETLVTREAVTEILGIE the protein stability index was 2.53.
In the case of AFVTYLETETLVTREAVTEILGIE, the protein stability index is reported as 1.13.
With AFVDYLETETLVTREAVTEILGIE the protein stability index was 2.41.
In the case of AFVGYLETETLVTREAVTEILGIE, the protein stability index is reported as 2.53.
Variant AFVRYLETETLVTREAVTEILGIE has a protein stability index of 1.45.
For AFVPYLETETLVTREAVTEILGIE, the protein stability index was 2.66.
With AFVKYLETETLVTREAVTEILGIE the protein stability index was 1.56.
Variant AFVHYLETETLVTREAVTEILGIE has a protein stability index of 2.19.
For AFVLYLETETLVTREAVTEILGIE, the protein stability index was 2.21.
In the case of AFVQYLETETLVTREAVTEILGIE, the protein stability index is reported as 1.36.
AFVEYLETETLVTREAVTEILGIE showed a protein stability index of 2.07.
In the case of AFVAYLETETLVTREAVTEILGIE, the protein stability index is reported as 2.54.
AFVVYLETETLVTREAVTEPLGIE showed a protein stability index of 1.67.
In the case of AFVVYLETETLVTREAVTEYLGIE, the protein stability index is reported as 1.56.
In the case of AFVVYLETETLVTREAVTEWLGIE, the protein stability index is reported as 2.75.
For AFVVYLETETLVTREAVTEILGNE, the protein stability index was 3.34.
For AFVVYLETETLVTREAVTEILGAE, the protein stability index was 1.8.
Variant AFVVYLETETLVTREAVTEILGVE has a protein stability index of 3.69.
AFVVYLETETLVTREAVTEILGTE gave a protein stability index of 1.79.
Work on AFVVYLETETLVTREAVTEILGCE yielded a protein stability index of 1.7.
Variant AFVVYLETETLVTREAVTEILGHE has a protein stability index of 2.75.
For AFVVYQETETLVTREAVTEILGIE, the protein stability index was 1.84.
Work on AFVVYGETETLVTREAVTEILGIE yielded a protein stability index of 1.77.
AFVVYEETETLVTREAVTEILGIE showed a protein stability index of 2.25.
AFVVYRETETLVTREAVTEILGIE gave a protein stability index of 1.24.
Work on AFVVYPETETLVTREAVTEILGIE yielded a protein stability index of 1.85.
Variant AFVVYLETETLMTREAVTEILGIE has a protein stability index of 3.5.
Variant AFVVYLETETLTTREAVTEILGIE has a protein stability index of 4.69.
AFVVYLETETLATREAVTEILGIE gave a protein stability index of 3.16.
AFVVYLETETLQTREAVTEILGIE gave a protein stability index of 1.94.
With AFVVYLETETLYTREAVTEILGIE the protein stability index was 2.53.
In the case of AFVVYLETETLVTREAVTEILGIQ, the protein stability index is reported as 3.13.
For AFVVYLETETLVTREAVTEILGIF, the protein stability index was 2.03.
In the case of AFVVYLETETLVTREAVTEILGIL, the protein stability index is reported as 3.3.
In the case of AFVVYLETETLVTREAVTEILGIR, the protein stability index is reported as 2.27.
For AFVVYLETETLVTREAVTEILGIK, the protein stability index was 3.34.
AFVVYLETETLVTREAVTEILGIS gave a protein stability index of 2.53.
Work on AFVVYLETETLVTREAVTEILGIG yielded a protein stability index of 2.84.
